According to the supplement of paper PMC9112550, “Optimization of the antimicrobial peptide Bac7 by deep mutational scanning” (BMC Biology, 2022):

System: Escherichia coli TOP10
Experiment: shrunken log2 fold change of peptide-encoding DNA abundance (4.5 h post-induction vs induction); higher = less antimicrobial activity (less host growth inhibition)
Details: time post-induction: 4.5 h; library: site-saturation at positions 5, 18, 19, 20
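Also: peptides expressed intracellularly from a pBAD plasmid library in pooled LB shake-flask culture, induced with 0.3% L-arabinose, DNA abundance read by NGS, three biological replicates, DESeq2 with apeglm shrinkage.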

Sequence	shrunken log2 fold change
RRIRVRPPRLPRPRPRPRKAPRP	-0.124
RRIRDRPPRLPRPRPRPEETPRP	-0.00131
RRIRHRPPRLPRPRPRPLWPPRP	0.27
RRIRYRPPRLPRPRPRPLDSPRP	-0.403
RRIRARPPRLPRPRPRPWPTPRP	0.703
RRIRRRPPRLPRPRPRPVDWPRP	0.577
RRIRRRPPRLPRPRPRPAQRPRP	0.414
RRIRDRPPRLPRPRPRPCHIPRP	-0.251
RRIRNRPPRLPRPRPRPINAPRP	-0.00965
RRIRWRPPRLPRPRPRPEPKPRP	0.393
RRIRFRPPRLPRPRPRPNVAPRP	0.365
RRIRCRPPRLPRPRPRPFMMPRP	-0.266
RRIRPRPPRLPRPRPRPMGLPRP	0.0513
RRIRQRPPRLPRPRPRPIINPRP	-0.235
RRIRFRPPRLPRPRPRPHNCPRP	-0.3
RRIRDRPPRLPRPRPRPPMLPRP	-0.0165
RRIRERPPRLPRPRPRPAEEPRP	-0.175
RRIRTRPPRLPRPRPRPNYMPRP	0.0222
RRIRMRPPRLPRPRPRPCGSPRP	-0.0626
RRIRVRPPRLPRPRPRPQLDPRP	0.269
RRIRQRPPRLPRPRPRPHKPPRP	-0.0272
RRIRPRPPRLPRPRPRPQFAPRP	0.218
RRIRMRPPRLPRPRPRPFGPPRP	-0.159
RRIRGRPPRLPRPRPRPCPDPRP	0.359
RRIRWRPPRLPRPRPRPFHIPRP	-0.655

Sequence	shrunken log2 fold change
RRIRFRPPRLPRPRPRPTGHPRP	-0.287
RRIRQRPPRLPRPRPRPPGMPRP	0.256
RRIRSRPPRLPRPRPRPEGYPRP	-0.0595
RRIRNRPPRLPRPRPRPIIHPRP	-0.712
RRIRERPPRLPRPRPRPPWWPRP	0.537
RRIRDRPPRLPRPRPRPSKRPRP	-0.273
RRIRFRPPRLPRPRPRPNSNPRP	-0.996
RRIRSRPPRLPRPRPRPIFYPRP	-0.387
RRIRVRPPRLPRPRPRPRQWPRP	0.236
RRIRFRPPRLPRPRPRPPGVPRP	0.168
RRIRFRPPRLPRPRPRPQSQPRP	0.0846
RRIRLRPPRLPRPRPRPICSPRP	-0.0252
RRIRCRPPRLPRPRPRPVSEPRP	0.00852
RRIRLRPPRLPRPRPRPEQDPRP	-0.125
RRIRQRPPRLPRPRPRPLNEPRP	-0.136
RRIRERPPRLPRPRPRPFINPRP	-0.991
RRIRTRPPRLPRPRPRPIPDPRP	-0.32
RRIRIRPPRLPRPRPRPYRIPRP	-0.485
RRIRERPPRLPRPRPRPVNWPRP	-0.0528
RRIRLRPPRLPRPRPRPIWIPRP	-0.134
RRIRHRPPRLPRPRPRPYFGPRP	-0.131
RRIRARPPRLPRPRPRPGHHPRP	0.127
RRIRNRPPRLPRPRPRPCYGPRP	-0.102
RRIRFRPPRLPRPRPRPDLPPRP	-0.0804
RRIRWRPPRLPRPRPRPLRCPRP	0.242

Sequence	shrunken log2 fold change
RRIRMRPPRLPRPRPRPFWLPRP	-0.179
RRIRDRPPRLPRPRPRPTHNPRP	-0.00516
RRIRMRPPRLPRPRPRPNISPRP	-0.29
RRIRGRPPRLPRPRPRPQMWPRP	0.891
RRIRARPPRLPRPRPRPPDHPRP	0.683
RRIRERPPRLPRPRPRPFLYPRP	-0.761
RRIRLRPPRLPRPRPRPKWEPRP	-0.00197
RRIRHRPPRLPRPRPRPWPYPRP	-0.01
RRIRLRPPRLPRPRPRPHCHPRP	-0.727
RRIRIRPPRLPRPRPRPCSFPRP	-0.45
RRIRNRPPRLPRPRPRPFELPRP	0.00621
RRIRNRPPRLPRPRPRPPYYPRP	-0.575
RRIRFRPPRLPRPRPRPHDWPRP	0.0906
RRIRRRPPRLPRPRPRPLANPRP	0.42
RRIRRRPPRLPRPRPRPRVHPRP	0.264
RRIRRRPPRLPRPRPRPIYCPRP	-0.0446
RRIRNRPPRLPRPRPRPWHLPRP	-0.0913
RRIRCRPPRLPRPRPRPEEWPRP	0.0214
RRIRLRPPRLPRPRPRPHAKPRP	-0.0928
RRIRQRPPRLPRPRPRPFIHPRP	-0.876
RRIRRRPPRLPRPRPRPAVQPRP	0.0814
RRIRIRPPRLPRPRPRPKHCPRP	-0.405
RRIRTRPPRLPRPRPRPDDVPRP	-0.102
RRIRYRPPRLPRPRPRPVQDPRP	-0.00208
RRIRYRPPRLPRPRPRPCQVPRP	-0.116

Sequence	shrunken log2 fold change
RRIRGRPPRLPRPRPRPCRMPRP	0.0426
RRIRRRPPRLPRPRPRPDDTPRP	0.139
RRIRRRPPRLPRPRPRPGAIPRP	0.179
RRIRARPPRLPRPRPRPMMNPRP	0.198
RRIRQRPPRLPRPRPRPKKWPRP	-0.0403
RRIRMRPPRLPRPRPRPKVLPRP	0.0109
RRIRRRPPRLPRPRPRPLCLPRP	0.0544
RRIRDRPPRLPRPRPRPKGDPRP	0.0039
RRIRERPPRLPRPRPRPMMAPRP	-0.128
RRIRARPPRLPRPRPRPNMFPRP	-0.0712
RRIRVRPPRLPRPRPRPMVLPRP	-0.19
RRIRHRPPRLPRPRPRPRADPRP	0.185
RRIRMRPPRLPRPRPRPCYLPRP	0.0715
RRIRERPPRLPRPRPRPHVQPRP	-0.434
RRIRARPPRLPRPRPRPVVLPRP	0.463
RRIRVRPPRLPRPRPRPDHDPRP	-0.485
RRIRVRPPRLPRPRPRPYHDPRP	-0.182
RRIRTRPPRLPRPRPRPHMGPRP	-0.00538
RRIRWRPPRLPRPRPRPKCWPRP	0.467
RRIRDRPPRLPRPRPRPNFHPRP	-0.0585
RRIRCRPPRLPRPRPRPPPSPRP	1.61
RRIRHRPPRLPRPRPRPFPWPRP	-0.0989
RRIRFRPPRLPRPRPRPALNPRP	0.0855
RRIRRRPPRLPRPRPRPSKKPRP	0.144
RRIRTRPPRLPRPRPRPWRQPRP	0.0481

Sequence	shrunken log2 fold change
RRIRNRPPRLPRPRPRPGDPPRP	0.306
RRIRWRPPRLPRPRPRPENVPRP	0.0417
RRIRARPPRLPRPRPRPKQCPRP	0.123
RRIRFRPPRLPRPRPRPRNCPRP	-0.132
RRIRERPPRLPRPRPRPGVGPRP	0.428
RRIRCRPPRLPRPRPRPIPGPRP	-0.000108
RRIRRRPPRLPRPRPRPVDIPRP	-0.0798
RRIRTRPPRLPRPRPRPSKQPRP	-0.11
RRIRFRPPRLPRPRPRPKWQPRP	0.000886
RRIRRRPPRLPRPRPRPIVLPRP	-0.102
RRIRTRPPRLPRPRPRPDTGPRP	-0.0906
RRIRNRPPRLPRPRPRPMLWPRP	0.0244
RRIRNRPPRLPRPRPRPSKEPRP	-0.0243
RRIRARPPRLPRPRPRPEVKPRP	0.123
RRIRIRPPRLPRPRPRPYDHPRP	-0.285
RRIRIRPPRLPRPRPRPLDAPRP	-0.142
RRIRRRPPRLPRPRPRPETQPRP	0.164
RRIRNRPPRLPRPRPRPKYNPRP	-0.901
RRIRCRPPRLPRPRPRPKKEPRP	0.00726
RRIRSRPPRLPRPRPRPALLPRP	0.42
RRIRNRPPRLPRPRPRPRRNPRP	-0.03
RRIRARPPRLPRPRPRPTTCPRP	0.0733
RRIRARPPRLPRPRPRPSLGPRP	0.188
RRIRWRPPRLPRPRPRPSHKPRP	-0.193
RRIRWRPPRLPRPRPRPLFQPRP	-0.0127

Sequence	shrunken log2 fold change
RRIRDRPPRLPRPRPRPKCPPRP	0.149
RRIRTRPPRLPRPRPRPYHRPRP	0.0446
RRIRDRPPRLPRPRPRPDYWPRP	-0.00116
RRIRYRPPRLPRPRPRPVKLPRP	0.0698
RRIRLRPPRLPRPRPRPSGAPRP	-0.0192
RRIRRRPPRLPRPRPRPALYPRP	0.225
RRIRWRPPRLPRPRPRPMHTPRP	0.643
RRIRCRPPRLPRPRPRPRPQPRP	0.776
RRIRSRPPRLPRPRPRPAYLPRP	-0.731
RRIRSRPPRLPRPRPRPLYCPRP	-0.523
RRIRYRPPRLPRPRPRPDAYPRP	-0.599
RRIRKRPPRLPRPRPRPGGQPRP	0.108
RRIRKRPPRLPRPRPRPFYIPRP	-0.44
RRIRHRPPRLPRPRPRPTLMPRP	-0.0715
RRIRQRPPRLPRPRPRPGSCPRP	0.192
RRIRNRPPRLPRPRPRPVKRPRP	0.0962
RRIRHRPPRLPRPRPRPNYKPRP	-0.603
RRIRSRPPRLPRPRPRPLTNPRP	-0.101
RRIRRRPPRLPRPRPRPPKPPRP	0.824
RRIRRRPPRLPRPRPRPGNMPRP	-0.266
RRIRWRPPRLPRPRPRPKGEPRP	0.74
RRIRKRPPRLPRPRPRPHFYPRP	-0.0034
RRIRVRPPRLPRPRPRPGMEPRP	0.232
RRIRERPPRLPRPRPRPPGGPRP	0.56
RRIRMRPPRLPRPRPRPACNPRP	0.39
